Article PMC4335309 (Journal of molecular biology, 2009)

Biological target: the molecule itself
Assay: crystal structure

B1: MukB-D (MukB construct 566–863: hinge domain with part of the coiled coil domain) (domain or fragment, Escherichia coli, UniProt P22523 566-863, looked up)
chain: IASLSDSVSNAREERMALRQEQEQLQSRIQSLMQRAPVWLAAQNSLNQLSEQCGEEFTSSQDVTEYLQQLLEREREAIVERDEVGARKNAVDEEIERLSQPGGSEDQRLNALAERFGGVLLSEIYDDVSLEDAPYFSALYGPSRHAIVVPDLSQVTEHLEGLTDCPEDLYLIEGDPQSFDDSVFSVDELEKAVVVKIADRQWRYSRFPEVPLFGRAARESRIESLHAEREVLSERFATLSFDVQKTQRLHQAFSRFIGSHLAVAFESDPEAEIRQLNSRRVELERALSNHENDNQQQR
binding result: binds
